Columns and labels:
[1] = target: MBP-PfAtg3 (P. falciparum 3D7) (UniProt C0H519); experiment: pull-down
[2] = target: MBP-PfAtg3 (P. falciparum 3D7) (UniProt C0H519); experiment: SPR
[3] = target: MBP-PfAtg3 W105A (P. falciparum 3D7) (UniProt C0H519); experiment: pull-down

Substance | reduction of binding against wild type [1] [%] | Kd [2] [nM] | decrease of binding against wild type [3] [%]
His6-PfAtg8 with deletion of residues 68 to 76 (from UniProt Q8IJK2 1-124) (natural protein) | 80 |  | 
His6-PfAtg8^CM (cysteine mutant C37I, C119S, C122S) (from UniProt Q8IJK2 1-124) (natural protein) |  | 326 | 35

— paper PMC3496014
